± gives the standard deviation of the averaged measurements.
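Also: ATP exposure 15 min at 22 °C before imaging.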

The data set relates to ATP. Kind of data set: switch fluorescence ratio, 500 uM ATP over buffer (Cy3 cluster intensity, sum of 5 cycles each) (fold (ratio)); higher = stronger signal-on switching upon ATP binding; sequences stand for … in TCGTCGGCAGCGTCAGATGTGTATAAGAGACAGTTTTTTTTTTTTTTTTTTTTTTTTT…TC. The note with it: aptamer strand: ATP DNA aptamer (quencher-CACCTGGGGGAGTATTGCGGAGGAAGG + anchor), 100 nM annealed; ATP concentration: 500 uM. In short, it runs like this: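 Clusters carrying Cy3-labelled switching strands on a modified Illumina MiSeq flow-cell were annealed to 100 nM quencher-labelled ATP aptamer and imaged in selection buffer. They were imaged again after 15 min with 500 uM ATP at 22 °C, over five buffer/ATP cycles with NaOH stripping and re-annealing in between. For each cluster, the fluorescence ratio is the summed Cy3 intensity of the target cycles divided by that of the buffer cycles, averaged per switch-domain sequence. Clusters outside 100-1000 RFU were left out.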
For GTCGTCGGAG, the switch fluorescence ratio was found to be 1.03 ± 0.019.

Regarding TTGTGATCGG, the switch fluorescence ratio worked out at 0.978 ± 0.03.

CGTGGGACAG: the switch fluorescence ratio is 0.976 ± 0.011.

TATCTTTCTT: the switch fluorescence ratio turned out to be 1.06 ± 0.019. Regarding GGGGGGTTTC, the switch fluorescence ratio is 1.1 ± 0.2.

As for ATTGCTGGGG, the switch fluorescence ratio came to 1.01 ± 0.056.

For GCACATGGCC, the switch fluorescence ratio was 1.03 ± 0.02. For the sequence AAGACCGGGG, the switch fluorescence ratio came out at 1.0215 ± 0.00047. Next, GATGTTAGTG: 1.003 ± 0.008. Under TTGAATTTGG stands 0.9794 ± 0.0085; under GGACTAGGAG, 1.05 ± 0.012. On to GCCCCGGCTG, for which the switch fluorescence ratio came out at 1.03 ± 0.045. As to CGTCATATTG, the switch fluorescence ratio turned out to be 0.997 ± 0.027. For TGCGAGAAGG, the switch fluorescence ratio stood at 0.999 ± 0.011. Under GCTGAAGTTC stands 0.993 ± 0.025; under TGGGGATACT, 1.04 ± 0.036. Consider ATAGGGGGAG, for which the switch fluorescence ratio was 1 ± 0.033. Take GAGTTTCATG: the switch fluorescence ratio amounted to 0.963 ± 0.015. With CTCGCACGTT, the switch fluorescence ratio worked out at 1.03 ± 0.032. Turning to TCGGGTTCTC, the switch fluorescence ratio is 0.967 ± 0.0091. Consider ACTTTGAATA, for which the switch fluorescence ratio was 0.988 ± 0.013. In the case of TTTGTTATGG, the switch fluorescence ratio was 1.02 ± 0.063. For the sequence ATCGGACGCT, the switch fluorescence ratio was 1.06 ± 0.023. Under CGGGGTTTGG stands 0.999 ± 0.017; under ATTGTGAACG, 1 ± 0.042; under ATGGAGGGGT, 1 ± 0.045.

Regarding ATCAGGAAAT, the switch fluorescence ratio came out at 1.01 ± 0.017.

Regarding CGTGAATAGT, the switch fluorescence ratio amounted to 1.03 ± 0.041.

For the sequence GGGCTGTCAC, the switch fluorescence ratio came out at 0.997 ± 0.013. Next, GGGTGCGGAC: 1.01 ± 0.042; AAGTAGATTG: 1.003 ± 0.0081. Next, TAAAGGGTAA: 0.9888 ± 0.0044.

GCGGGGGAAA: the switch fluorescence ratio stood at 1.02 ± 0.09. Consider GACTAATGAT, for which the switch fluorescence ratio is 1.02 ± 0.024. As for TGAGAGTTAT, the switch fluorescence ratio was found to be 1 ± 0.051. In the case of TGATACATAA, the switch fluorescence ratio was 1.028 ± 0.0097.

Consider TTCCAAGACA, for which the switch fluorescence ratio turned out to be 1.01 ± 0.026. As for TCGGTTAGAT, the switch fluorescence ratio was found to be 0.981 ± 0.057. Under AAGGAAGACT stands 0.974 ± 0.021; under TACCGCTTGC, 2.01 ± 0.53; under AATTTACGAT, 1.02 ± 0.014. Regarding TACGATGCTT, the switch fluorescence ratio stood at 1.2 ± 0.028. With GCGGGGTCCG, the switch fluorescence ratio is 0.97126 ± 0.00059. As to AAGTTCAGTA, the switch fluorescence ratio was 0.9673 ± 0.0084. Turning to AGTGGGAGTG, the switch fluorescence ratio is 0.983 ± 0.034. Next, GTCGTAATTG: 1.02 ± 0.016; TGAAGTATTT: 1 ± 0.037. As for CGAGGGGTTC, the switch fluorescence ratio was found to be 0.9908 ± 0.0044.

As to GTGGGGTTAT, the switch fluorescence ratio is 1 ± 0.013. Regarding GTGGCTAACT, the switch fluorescence ratio was determined as 1.04 ± 0.035. Under ATTTTTTGGC stands 0.996 ± 0.01; under AAGATTCTCG, 1.004 ± 0.0095. For the sequence AATCATTCCG, the switch fluorescence ratio was 1.07 ± 0.041.

In the case of GTGTTGGATG, the switch fluorescence ratio is 0.958 ± 0.069. Under AAATTTTACT stands 1.02 ± 0.031; under AGGGCAGTAT, 1.06 ± 0.11; under TTTGCTAAAT, 1.02 ± 0.02. As to TTGCTAAAGC, the switch fluorescence ratio is 1.038 ± 0.0054.

On to GTTTAGTTTG, for which the switch fluorescence ratio stood at 0.992 ± 0.044. Take ATGGGGATAC: the switch fluorescence ratio is 1.06 ± 0.026. Under TTTGGGCGGG stands 1.01 ± 0.033; under TTAATGCTAA, 0.99 ± 0.036; under TGGGTTGATG, 0.959 ± 0.023. Next, TTTTAGTTT: 0.996 ± 0.023; AGATGGGGCA: 0.9774 ± 0.0024. Take TTGGCTGTGC: the switch fluorescence ratio was 1.02 ± 0.019. For TAAATGTCTG, the switch fluorescence ratio was determined as 0.995 ± 0.015. On to AGGCACAGAA, for which the switch fluorescence ratio stood at 1.019 ± 0.0098. Under ACCGTTGGGG stands 1.04 ± 0.02.

Regarding ATATTCATCT, the switch fluorescence ratio turned out to be 0.9861 ± 0.0056. Next, TAATGGTATG: 0.982 ± 0.039. AGCTGATGTG: the switch fluorescence ratio amounted to 1.008 ± 0.0051. Under GTGTCCGTTT stands 1.05 ± 0.039; under GTGTTAGGGG, 1.02 ± 0.069; under GCTAGGCTGG, 0.97301 ± 0.0002. Next, GGGGGCTGCC: 0.986 ± 0.011. Next, CGGGGGATGG: 1.01 ± 0.045; ATGTAGGGGC: 1.03 ± 0.046. For TATGGCGGTC, the switch fluorescence ratio came to 0.92422 ± 0.00078.

The values are drawn from the supplement of paper PMC10126150.
